Assay results as given in US20250163182A1 (Janssen / Centocor, published 2025).

Experiments:
human CD3 = target: T1, human CD3 (human, UniProt P07766 23-126, limits assumed); assay: affinity; method and construct not stated
T1 construct: also called CD3 epsilon

human ENPP3 = target: T2, human ENPP3 (human, UniProt O14638 46-875, limits assumed); assay: affinity; method and construct not stated
T2 construct: neither the construct nor the method is stated; also called ectonucleotide pyrophosphatase/phosphodiesterase family member 3
T2 sequence (looked up): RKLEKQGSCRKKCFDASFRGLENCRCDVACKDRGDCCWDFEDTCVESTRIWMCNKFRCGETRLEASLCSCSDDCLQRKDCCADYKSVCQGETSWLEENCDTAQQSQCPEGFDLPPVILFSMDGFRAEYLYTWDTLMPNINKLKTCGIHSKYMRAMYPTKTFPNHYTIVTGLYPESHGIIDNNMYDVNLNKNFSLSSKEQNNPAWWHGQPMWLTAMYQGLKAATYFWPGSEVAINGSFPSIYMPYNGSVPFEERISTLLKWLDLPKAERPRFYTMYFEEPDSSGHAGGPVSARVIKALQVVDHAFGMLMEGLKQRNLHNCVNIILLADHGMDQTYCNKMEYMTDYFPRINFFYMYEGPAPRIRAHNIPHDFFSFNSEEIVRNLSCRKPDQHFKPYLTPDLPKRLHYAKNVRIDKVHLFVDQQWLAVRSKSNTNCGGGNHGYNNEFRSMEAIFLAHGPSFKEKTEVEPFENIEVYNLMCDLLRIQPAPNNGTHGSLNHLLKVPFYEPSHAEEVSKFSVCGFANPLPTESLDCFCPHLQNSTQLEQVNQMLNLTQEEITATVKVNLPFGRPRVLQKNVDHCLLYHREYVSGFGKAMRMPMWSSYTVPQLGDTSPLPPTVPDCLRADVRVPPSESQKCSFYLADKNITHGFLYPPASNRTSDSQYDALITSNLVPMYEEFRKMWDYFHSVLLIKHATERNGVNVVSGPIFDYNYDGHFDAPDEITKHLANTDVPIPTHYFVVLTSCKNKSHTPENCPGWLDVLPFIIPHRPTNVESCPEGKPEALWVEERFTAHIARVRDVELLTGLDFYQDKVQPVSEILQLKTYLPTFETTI

human ENPP3 on cells [1] = target: T3, human ENPP3 on cells (human, UniProt O14638 1-875); assay: flow cytometry on CHO ENPP3 OE cells
T3 construct: whole, on cells; also called ENPP3 on A704, VMRCRCW, HepG2, TUHR4TKB, TUHR10TKB; CHO-K1 ENPP3 OE
T3 sequence (looked up): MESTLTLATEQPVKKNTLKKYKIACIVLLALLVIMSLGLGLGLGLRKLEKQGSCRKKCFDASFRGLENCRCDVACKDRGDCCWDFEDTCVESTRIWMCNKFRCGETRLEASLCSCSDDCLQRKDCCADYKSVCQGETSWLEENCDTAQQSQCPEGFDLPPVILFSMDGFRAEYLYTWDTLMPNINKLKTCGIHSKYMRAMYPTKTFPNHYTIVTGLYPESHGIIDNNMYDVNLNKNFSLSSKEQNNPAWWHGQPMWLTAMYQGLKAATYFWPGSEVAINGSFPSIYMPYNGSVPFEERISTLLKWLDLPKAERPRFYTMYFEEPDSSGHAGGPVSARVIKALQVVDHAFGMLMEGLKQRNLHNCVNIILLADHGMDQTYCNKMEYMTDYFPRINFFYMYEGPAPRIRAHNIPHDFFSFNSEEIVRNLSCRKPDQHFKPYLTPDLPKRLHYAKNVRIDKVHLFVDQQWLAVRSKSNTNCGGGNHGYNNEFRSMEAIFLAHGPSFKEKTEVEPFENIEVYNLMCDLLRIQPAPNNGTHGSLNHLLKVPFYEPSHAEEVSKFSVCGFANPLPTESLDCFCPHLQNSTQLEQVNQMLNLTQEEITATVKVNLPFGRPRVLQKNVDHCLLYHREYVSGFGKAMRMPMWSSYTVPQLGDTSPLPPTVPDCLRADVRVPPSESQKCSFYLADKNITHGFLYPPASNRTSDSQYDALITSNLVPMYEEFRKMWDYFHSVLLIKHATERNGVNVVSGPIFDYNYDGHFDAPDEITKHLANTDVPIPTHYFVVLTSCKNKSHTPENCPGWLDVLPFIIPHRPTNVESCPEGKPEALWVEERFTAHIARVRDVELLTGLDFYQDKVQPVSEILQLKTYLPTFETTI

ENPP2 on CHOK1 cells = ENPP2 on CHOK1 cells (UniProt Q13822 36-863); assay: flow cytometry on CHO cells overexpressing ENPP2
human ENPP3 on cells [2] = target: T3, human ENPP3 on cells; assay: flow cytometry on A704 cells
human CD3 on T cells [3] = target: T4, human CD3 on T cells (human, UniProt P07766 23-207); assay: flow cytometry on human T cells, donor 110044049
T4 construct: on T cells it stands in the TCR-CD3 complex; also called human T cells; T cells isolated from healthy human donors
T4 sequence (P07766 23-207 limits assumed): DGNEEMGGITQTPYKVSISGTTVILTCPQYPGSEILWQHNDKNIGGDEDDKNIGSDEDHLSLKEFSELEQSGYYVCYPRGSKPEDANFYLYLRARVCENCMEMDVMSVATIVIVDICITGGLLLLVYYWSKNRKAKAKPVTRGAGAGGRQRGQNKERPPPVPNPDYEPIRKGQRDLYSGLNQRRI

human ENPP3 on cells [4] = target: T3, human ENPP3 on cells; assay: flow cytometry on VMRCRCW cells
human ENPP3 on cells [5] = target: T3, human ENPP3 on cells; assay: cell-based or functional assay
human CD3 on T cells [6] = target: T4, human CD3 on T cells; assay: flow cytometry on human T cells, donor 110042496
human CD3 on T cells [7] = target: T4, human CD3 on T cells; assay: flow cytometry on human T cells, donor 110040278

T1 sequence (P07766 23-126 limits assumed): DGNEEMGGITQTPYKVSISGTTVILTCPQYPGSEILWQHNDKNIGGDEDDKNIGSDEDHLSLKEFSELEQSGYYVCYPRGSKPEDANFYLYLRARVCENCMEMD

Kd (human CD3): 110 nM
Kd (human ENPP3): 0.92 nM
EC50 (human ENPP3 on cells [1]): 0.51 nM
binding result (ENPP2 on CHOK1 cells): no binding (tested: 100 nM)
EC50 (human ENPP3 on cells [2]): 1.01 nM
EC50 (human CD3 on T cells [3]): 188 nM
EC50 (human ENPP3 on cells [4]): 0.5 nM
T-cell activation (CD25) EC50; A704; T-cell donor 110040278; E:T 3:1 (human ENPP3 on cells [5]): 0.008 nM
T-cell activation (CD25) EC50; A704; T-cell donor 110042496; E:T 3:1 (human ENPP3 on cells [5]): 0.017 nM
T-cell activation (CD25) EC50; A704; T-cell donor 110042593; E:T 3:1 (human ENPP3 on cells [5]): 0.013 nM
T-cell activation (CD25) EC50; A704; T-cell donor 110044049; E:T 3:1 (human ENPP3 on cells [5]): 0.008 nM
T-cell activation (CD25) EC50; A704; T-cell donor 110048457; E:T 3:1 (human ENPP3 on cells [5]): 0.01 nM
T-cell activation (CD25) EC50; A704; T-cell donor 888668965; E:T 3:1 (human ENPP3 on cells [5]): 0.008 nM
T-cell activation (CD25) EC50; VMRCRCW; T-cell donor 110040278; E:T 3:1 (human ENPP3 on cells [5]): 0.007 nM
T-cell activation (CD25) EC50; VMRCRCW; T-cell donor 110042496; E:T 3:1 (human ENPP3 on cells [5]): 0.015 nM
T-cell activation (CD25) EC50; VMRCRCW; T-cell donor 110042593; E:T 3:1 (human ENPP3 on cells [5]): 0.017 nM
T-cell activation (CD25) EC50; VMRCRCW; T-cell donor 110044049; E:T 3:1 (human ENPP3 on cells [5]): 0.009 nM
T-cell activation (CD25) EC50; VMRCRCW; T-cell donor 110048457; E:T 3:1 (human ENPP3 on cells [5]): 0.009 nM
T-cell activation (CD25) EC50; VMRCRCW; T-cell donor 888668965; E:T 3:1 (human ENPP3 on cells [5]): 0.016 nM
EC50 (human CD3 on T cells [6]): 147 nM
EC50 (human CD3 on T cells [7]): 253 nM
B1: NPP3B815 (bispecific antibody, human IgG1, kappa, L234A L235A)
heavy 1: EIVLTQSPATLSASPGERVTLSCSASSSVSYMNWYQQKPGCAPRRWIYDSSKLASGVPARFSGSGSGRDYTLTISSLEPEDFAVYYCQQWSRNPPTFGGGTKVEIKGGGSGGSGGCPPCGGSGGQVQLVQSGAEVKKPGSSVKVSCKASGYTFTRSTMHWVKQAPGQGLEWIGYINPSSAYTNYNQKFQGRVTLTADKSTSTAYMELSSLRSEDTAVYYCASPQVHYDYAGFPYWGCGTLVTVSSEPKSSDKTHTCPPCPAPEAAGGPSVFLFPPKPKDTLMISRTPEVTCVVVSVSHEDPEVKFNWYVDGVEVHNAKTKPREEQYNSTYRVVSVLTVLHQDWLNGKEYKCKVSNKALPAPIEKTISKAKGQPREPQVYTLPPSREEMTKNQVSLWCLVKGFYPSDIAVEWESNGQPENNYKTTPPVLDSDGSFFLYSKLTVDKSRWQQGNVFSCSVMHEALHNHYTQKSLSLSPGK
heavy 2: EVQLVESGGGRVKPGGSLRLSCAASGFTFSDYSMNWVRQAPGKGLEWVSSISSISSYVKYADSVKGRFTMSRDNAKNSLFLQMNSLRDEDMAVYYCARGHYFDYWGQGTLVTVSSASTKGPSVFPLAPSSKSTSGGTAALGCLVKDYFPEPVTVSWNSGALTSGVHTFPAVLQSSGLYSLSSVVTVPSSSLGTQTYICNVNHKPSNTKVDKKVEPKSCDKTHTCPPCPAPEAAGGPSVFLFPPKPKDTLMISRTPEVTCVVVSVSHEDPEVKFNWYVDGVEVHNAKTKPREEQYNSTYRVVSVLTVLHQDWLNGKEYKCKVSNKALPAPIEKTISKAKGQPREPQVYTLPPSREEMTKNQVSLSCAVKGFYPSDIAVEWESNGQPENNYKTTPPVLDSDGSFFLVSKLTVDKSRWQQGNVFSCSVMHEALHNRFTQKSLSLSPGK
light: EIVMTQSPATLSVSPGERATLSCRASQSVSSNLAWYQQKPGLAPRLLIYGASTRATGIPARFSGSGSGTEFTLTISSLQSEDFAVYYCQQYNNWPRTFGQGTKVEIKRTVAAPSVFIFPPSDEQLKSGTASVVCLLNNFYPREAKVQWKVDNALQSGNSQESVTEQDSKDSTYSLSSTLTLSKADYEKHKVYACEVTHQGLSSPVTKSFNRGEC
notes: HC2 carries the NPP3B56 Fab and the hole T366S, L368A, Y407V; Fc with L234A, L235A, D265S; The CPPC linker cysteines form disulfides with engineered Cys at L42 and H105 (Chothia); also called NPP3B56×CD3B2030-N106A; ENPP3×CD3 (NPP3B815)
